Assay results reported in publication PMC3269570 (European Biophysics Journal, 2011).

Target: the molecule itself
Experiment: cross-linking

MQRINKNVVLALLTLTSSAFLLFQLYYYKHYLSARN [N-terminal transmembrane domain of Fukutin-I (FK1TMD), unlabelled peptide]
stoichiometry N: 2
